# According to patent publication US8541373B2, “BChE albumin fusions for the treatment of cocaine abuse” (priority 2009, dated 2013):
# Where “and” joins values, the source holds several entries; their conditions need not be identical. Identical values can stand only once.
# Assay: AlbuBChE serum pharmacokinetics after single IM dose (ELISA)
# Conditions: for tmax: group value
# Experimental: The study included a total of 11 naïve, adult male cynomolgus monkeys divided into four dose groups: • a control group of two cynomologus monkeys that only received a single IV dose of cocaine; • three dose groups that were treated with a single IM dose of AlbuBChE at 0.2, 1 or 5 mg/kg. Three naïve, adult male cynomolgus monkeys were used in each dose group. Following AlbuBChE treatment, a 1 mg/kg IV dose of cocaine was administered at 2, 48, 96, 120, and 240 hours after AlbuBChE dose administration.
# A single intramuscular (IM) administration of AlbuBChE was administered on study day 1 and blood was collected at the time points outlined in Table 2. Approximately 0.5 mL of whole blood was collected from the femoral vein into serum separate tubes (SST).
# Blocking is done with 2% Casein in 1×PBS, 200 μL/well, 2 hours at room temperature. After washing, 100 μL of diluted serum samples are added to the plates along with standards. Standards are generated through 3.64 fold, serial dilution of AlbuBChE from 2000 to 3.1 ng/mL. Serum samples and standards are maintained at 10% serum by dilution with buffer containing pooled cynomolgus monkey serum. A wash step precedes detection with 100 μL of anti-HSA mAb-6502-HRP at 0.04 μg/mL for 1 hour. Wells are washed again, prior to developing with 100 μl of TMB substrate. After 15 minutes, the reaction is terminated with 100 μL/well of 1N H2SO4 and read on SpectraMax plate reader at 450/570 nm. Values for unknown serum samples are calculated by interpolation of standard curve generated by 4-parameter fit of AlbuBChE standards. The limit of quantitation in cynomolgus serum was 21.1 ng/mL.
# AlbuBChE pharmacokinetic parameter values were determined using serum concentration-time profiles for individual animals. The computer software WinNonlin Professional (Version 4.0.1 Pharsight Corporation, USA) was used. Specifically the model for non-compartmental analysis with extravascular input was applied. If there were fewer than 3 data points in the terminal phase of the serum concentration curve, a terminal phase half-life and PK parameters derived from the half-life were not calculated for that profile. Parameters analyzed include tmax, Cmax, t1/2, AUC(0-t) and AUC(0-∞) were calculated.
substance,measurement,setting,value
AlbuBChE,"AlbuBChE serum concentration, individual animals","1.0 mg/kg IM, 24 hr post dose",630.1 ng/mL and 673.8 ng/mL and 572.1 ng/mL
same,Mean AlbuBChE serum concentration,"1.0 mg/kg IM, 24 hr post dose",625 ng/mL
same,"AlbuBChE serum concentration, individual animals","1.0 mg/kg IM, 36 hr post dose",373.4 ng/mL and 471.7 ng/mL and 348.2 ng/mL
same,Mean AlbuBChE serum concentration,"1.0 mg/kg IM, 36 hr post dose",398 ng/mL
same,"AlbuBChE serum concentration, individual animals","1.0 mg/kg IM, 48 hr post dose",289.4 ng/mL and 362.7 ng/mL and 264.4 ng/mL
same,Mean AlbuBChE serum concentration,"1.0 mg/kg IM, 48 hr post dose",306 ng/mL
same,"AlbuBChE serum concentration, individual animals","1.0 mg/kg IM, 72 hr post dose",122.1 ng/mL and 235.0 ng/mL and 133.0 ng/mL
same,Mean AlbuBChE serum concentration,"1.0 mg/kg IM, 72 hr post dose",163 ng/mL
same,"AlbuBChE serum concentration, individual animals","1.0 mg/kg IM, 96 hr post dose",87.0 ng/mL and 131.7 ng/mL and 75.3 ng/mL
same,Mean AlbuBChE serum concentration,"1.0 mg/kg IM, 96 hr post dose",98.0 ng/mL
same,"AlbuBChE serum concentration, individual animals","1.0 mg/kg IM, 128 hr post dose",36.2 ng/mL and 72.0 ng/mL and 38.1 ng/mL
same,Mean AlbuBChE serum concentration,"1.0 mg/kg IM, 128 hr post dose",48.8 ng/mL
same,"AlbuBChE serum concentration, individual animals","1.0 mg/kg IM, 144 hr post dose",27.4 ng/mL and 47.7 ng/mL and 31.5 ng/mL
same,Mean AlbuBChE serum concentration,"1.0 mg/kg IM, 144 hr post dose",35.5 ng/mL
same,"AlbuBChE serum concentration, individual animals","1.0 mg/kg IM, 168 hr post dose",<LLOQ (2×) and 39.5 ng/mL
same,Mean AlbuBChE serum concentration,"1.0 mg/kg IM, 168 hr post dose",<LLOQ
same,"AlbuBChE serum concentration, individual animals","1.0 mg/kg IM, 216 hr post dose",<LLOQ
same,Mean AlbuBChE serum concentration,"1.0 mg/kg IM, 216 hr post dose",<LLOQ
same,"AlbuBChE serum concentration, individual animals","1.0 mg/kg IM, 264 hr post dose",<LLOQ
same,Mean AlbuBChE serum concentration,"1.0 mg/kg IM, 264 hr post dose",<LLOQ
same,tmax,1.0 mg/kg IM,3 h
same,"AUC % Extrap, individual animals",5 mg/kg IM,1.86% and 0.938% and 1.85%
same,"AUC(0-t), individual animals",5 mg/kg IM,201.754 µg·h/mL and 437.848 µg·h/mL and 235.983 µg·h/mL
same,"AUC(0-∞), individual animals",5 mg/kg IM,205.584 µg·h/mL and 441.992 µg·h/mL and 240.442 µg·h/mL
same,"Cmax, individual animals",5 mg/kg IM,6016 ng/mL and 17687 ng/mL and 6530 ng/mL
same,"Tmax, individual animals",5 mg/kg IM,6 h
same,"t½, individual animals",5 mg/kg IM,63.4 h and 56.4 h and 65.5 h
same,Dose Normalized AUC(0-∞),5.0 mg/kg IM,59201
same,Dose Normalized Cmax,5.0 mg/kg IM,2016
same,Mean AUC % Extrap,5.0 mg/kg IM,1.55%
same,Mean AUC(0-t),5.0 mg/kg IM,291.862 µg·h/mL
same,Mean AUC(0-∞),5.0 mg/kg IM,296.006 µg·h/mL
same,Mean Cmax,5.0 mg/kg IM,10078 ng/mL
same,Mean t½,5.0 mg/kg IM,62 h and 61.8 h
same,"AlbuBChE serum concentration, individual animals","5.0 mg/kg IM, 1 hr post dose",2580.0 ng/mL and 6570.9 ng/mL and 3821.0 ng/mL
same,Mean AlbuBChE serum concentration,"5.0 mg/kg IM, 1 hr post dose",4324 ng/mL
same,"AlbuBChE serum concentration, individual animals","5.0 mg/kg IM, 3 hr post dose",4899.0 ng/mL and 12683.9 ng/mL and 6024.0 ng/mL
same,Mean AlbuBChE serum concentration,"5.0 mg/kg IM, 3 hr post dose",7869 ng/mL
same,"AlbuBChE serum concentration, individual animals","5.0 mg/kg IM, 6 hr post dose",6016.0 ng/mL and 17686.8 ng/mL and 6530.3 ng/mL
same,Mean AlbuBChE serum concentration,"5.0 mg/kg IM, 6 hr post dose",10078 ng/mL
same,"AlbuBChE serum concentration, individual animals","5.0 mg/kg IM, 12 hr post dose",4178.0 ng/mL and 11105.8 ng/mL and 5091.0 ng/mL
same,Mean AlbuBChE serum concentration,"5.0 mg/kg IM, 12 hr post dose",6792 ng/mL
same,"AlbuBChE serum concentration, individual animals","5.0 mg/kg IM, 24 hr post dose",2836.0 ng/mL and 5034.0 ng/mL and 3325.0 ng/mL
same,Mean AlbuBChE serum concentration,"5.0 mg/kg IM, 24 hr post dose",3732 ng/mL
same,"AlbuBChE serum concentration, individual animals","5.0 mg/kg IM, 36 hr post dose",1572.0 ng/mL and 2929.0 ng/mL and 1901.0 ng/mL
same,Mean AlbuBChE serum concentration,"5.0 mg/kg IM, 36 hr post dose",2134 ng/mL
same,"AlbuBChE serum concentration, individual animals","5.0 mg/kg IM, 48 hr post dose",1329.7 ng/mL and 2644.4 ng/mL and 1604.9 ng/mL
same,Mean AlbuBChE serum concentration,"5.0 mg/kg IM, 48 hr post dose",1860 ng/mL
same,"AlbuBChE serum concentration, individual animals","5.0 mg/kg IM, 72 hr post dose",637.7 ng/mL and 1190.8 ng/mL and 723.6 ng/mL
same,Mean AlbuBChE serum concentration,"5.0 mg/kg IM, 72 hr post dose",851 ng/mL
same,"AlbuBChE serum concentration, individual animals","5.0 mg/kg IM, 96 hr post dose",415.1 ng/mL and 732.6 ng/mL and 454.7 ng/mL
same,Mean AlbuBChE serum concentration,"5.0 mg/kg IM, 96 hr post dose",534.1 ng/mL and 534 ng/mL
same,"AlbuBChE serum concentration, individual animals","5.0 mg/kg IM, 128 hr post dose",217.2 ng/mL and 325.9 ng/mL and 224.3 ng/mL
same,Mean AlbuBChE serum concentration,"5.0 mg/kg IM, 128 hr post dose",255.8 ng/mL and 256 ng/mL
same,"AlbuBChE serum concentration, individual animals","5.0 mg/kg IM, 144 hr post dose",158.4 ng/mL and 254.7 ng/mL and 163.3 ng/mL
same,Mean AlbuBChE serum concentration,"5.0 mg/kg IM, 144 hr post dose",192.1 ng/mL and 192 ng/mL
same,"AlbuBChE serum concentration, individual animals","5.0 mg/kg IM, 168 hr post dose",118.9 ng/mL and 165.5 ng/mL and 130.4 ng/mL
same,Mean AlbuBChE serum concentration,"5.0 mg/kg IM, 168 hr post dose",138.3 ng/mL and 138 ng/mL
same,"AlbuBChE serum concentration, individual animals","5.0 mg/kg IM, 216 hr post dose",73.7 ng/mL and 91.6 ng/mL and 79.4 ng/mL
same,Mean AlbuBChE serum concentration,"5.0 mg/kg IM, 216 hr post dose",81.6 ng/mL
same,"AlbuBChE serum concentration, individual animals","5.0 mg/kg IM, 264 hr post dose",41.9 ng/mL and 50.9 ng/mL and 47.2 ng/mL
same,Mean AlbuBChE serum concentration,"5.0 mg/kg IM, 264 hr post dose",46.7 ng/mL
same,tmax,5.0 mg/kg IM,6 h
